Test results reported in patent US20200239594A1 (MINERVA BIOTECHNOLOGIES, published 2020).

B1: MIN-C2 scFv (heavy chain variable-linker-light chain variable, C-terminal poly-histidine tag) (scFv)
scFv: EVQLEESGGGLVKPGGSLKLSCAASGFTFSGYAMSWVRQTPEKRLEWVATISSGGTYIYYPDSVKGRFTISRDNAKNTLYLQMSSLRSEDTAMYYCARLGGDNYYEYFDVWGAGTTVTVSSAKTTPPSVYGGGGSGGGGSGGGGSDIVITQSTASLGVSLGQRATISCRASKSVSTSGYSYMHWYQQRPGQPPKLLIYLASNLESGVPARFSGSGSGTDFTLNIHPVEEEDAATYYCQHSRELPFTFGGGTKLEIKRADAAPTVSVDHHHHHH
notes: part was further purified on a PSMGFR peptide column; also called scFv protein; recombinant scFv
B2: MIN-C2 Fab (papain digestion of MIN-C2 antibody) (Fab, V domains shown)
VH: EVQLEESGGGLVKPGGSLKLSCAASGFTFSGYAMSWVRQTPEKRLEWVATISSGGTYIYYPDSVKGRFTISRDNAKNTLYLQMSSLRSEDTAMYYCARLGGDNYYEYFDVWGAGTTVTVSS
VL: DIVITQSTASLGVSLGQRATISCRASKSVSTSGYSYMHWYQQRPGQPPKLLIYLASNLESGVPARFSGSGSGTDFTLNIHPVEEEDAATYYCQHSRELPFTFGGGTKLEIKR
notes: Enzymatic Fab of about 50 kD made by papain digestion of the parent mAb; also called monovalent form of MIN-C2

Columns and labels:
[1] = molecular target: T1, MUC1* extracellular domain peptide (PSMGFR, primary sequence of the MUC1 growth factor receptor); assay: ELISA on plate-adsorbed peptide; reference: refolded scFv before peptide affinity chromatography
T1 construct: Synthetic peptide adsorbed onto ELISA plates; The immunogen carried an extra C-terminal cysteine for KLH conjugation; also called MUC1* peptide; PSMGFR peptide
T1 peptide: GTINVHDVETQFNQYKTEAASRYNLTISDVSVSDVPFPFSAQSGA

[2] = molecular target: T1, MUC1* extracellular domain peptide …; assay: competition ELISA, peptide on plate, competitor: parent MIN-C2 antibody
Protocol: To test the ability of the Fab produced by papain digestion to compete with the parent antibody for binding to the MUC1* peptide, varying concentrations of the Fab were added. After wash steps, the ELISA was processed by standard methods.

| Binder | fold higher specific activity after antigen affinity purification [1] [fold] | fold improvement of specific binding after antigen affinity purification [1] [fold] | binding result [2] |
| --- | --- | --- | --- |
| B1 | ~10 | 10 | – |
| B2 | – | – | binds |
